According to US20070265189A1 (published 2007):

How the values were obtained:
[1] = target: T1, Soluble IGF-1R (sIGF-1R), R&D Systems Cat. # 391-GR/CF (UniProt P08069 31-935, limits assumed); test: phage ELISA
T1 construct: extracellular domain

[2] = target: T2, soluble human insulin receptor-immunoglobulin heavy chain chimera (sIR-Fc; Bass et al., 1996) (human, UniProt P06213 28-956, limits assumed); test: phage ELISA
T2 construct: extracellular domain; also called soluble IR (Bass construct); not shown: immunoglobulin heavy chain constant domains

Row | IGF-1R/IR comparison [1] | Ratio over Background [1] | IR/IGF-1R comparison [2] | Ratio over Background [2] | Binder
1 | 5.1 | 5.4 | 0.2 | 1.1 | VGTVAGFYDAIAQLVARASRV [20E2A-3-C7-IGFR]
2 | 7.3 | 6.2 | 0.1 | 0.9 | QGNVLDFYGWIGRLLAKQGSD [20E2B-3-D12-IGFR]
3 | 7.1 | 10 | 0.1 | 1.4 | EGSGFYGYFFSLLGLQG [NNRPγ-4-A9-IR]
4 | 7.6 | 12.2 | 0.1 | 1.6 | LGVTDGFYAALGYLIHGVGQF [20E2B-3-D11-IGFR]
5 | 6 | 10.9 | 0.2 | 1.8 | IIGGFYSYFNSVLRLGT [NNRPγ-4-A1-IR]
6 | 5.9 | 5.3 | 0.2 | 0.9 | PAGPCGFYCGLGLLLHGDQSP [20E2B-4-H8-IGFR]
7 | 7 | 4.5 | 0.1 | 0.6 | RQGTGSFYLMLEQLLVGARGP [20E2B-4-G11-IGFR]
8 | 5 | 4.4 | 0.2 | 0.9 | TLRSPTFYDWLEMVLTHGQGG [20E2B-1-A8-IGFR]
9 | 6.2 | 20.4 | 0.2 | 3.3 | ASSASGFYELLQRLAGLGLEV [20E2B-3-C4-IGFR]
10 | 9.4 | 9.2 | 0.1 | 1 | SACQFDCHENFYDWFARQVSGGAAYG [H2CA-4-H8-IGFR]
11 | 6.9 | 17.8 | 0.1 | 2.6 | DSVGDNFYQLLESLVGGHGVG [20E2B-3-D6-IGFR]
12 | 5.3 | 5.8 | 0.2 | 1.1 | SGAKVIVVTGDSGDPFYHKLSELLQGS [B6Hα-2-C10-IR]
13 | 7.7 | 14.7 | 0.1 | 1.9 | QPDHSYFYSLLQELVGSEERL [20E2B-4-F9-IGFR]
14 | 6.7 | 6.1 | 0.1 | 0.9 | LSSDGQFYRALNLLLQGSAGR [20E2B-2-B7-IGFR]
15 | 6.7 | 6.8 | 0.1 | 1 | SAAQLFFQESFYDWFLRQVAESSQPN [H2CA-4-F11-IGFR]
16 | 7.4 | 5.3 | 0.1 | 0.7 | ICTGQGFYQVLCGLLRGTSAR [20E2B-2-B3-IGFR]
17 | 8.1 | 4.9 | 0.1 | 0.6 | PGTDLGFYQALRCVVIQGACD [20E2B-2-B2-IGFR]
18 | 6 | 7.7 | 0.2 | 1.3 | FFYRCLSRLLGGQLGSRLGLSCIGD [20C-3-E4-IGFR]
19 | 6.4 | 7.3 | 0.2 | 1.1 | AVRATRFDEAFYDWFVRQISDGQGNK [H2CA-4-F6-IGFR]
20 | 9.6 | 7.9 | 0.1 | 0.8 | NSRDGGFYLQLERLLGFPVTG [20E2B-3-D4-IGFR]
21 | 9.7 | 9.5 | 0.1 | 1 | RFSTDGFYQYLLALVGGGPVG [20E2B-1-A11-IGFR]
22 | 7.6 | 8.8 | 0.1 | 1.2 | QFYGCLLDLSLGVPSFGWRRRCITA [20C-3-A4-IGFR]
23 | 7.8 | 17.3 | 0.1 | 2.2 | AQPCGGFYGLLEQLVGRSVCD [20E2B-4-F10-IGFR]
24 | 5.6 | 5.2 | 0.2 | 0.9 | RCQGTGFYTCIQELIGFGDPD [20E2B-4-H9-IGFR]
25 | 4.9 | 6.3 | 0.2 | 1.3 | RFDPFYSYFVNLLGASA [NNRPγ-4-A7-IR]
26 | 7.3 | 6 | 0.1 | 0.8 | VATSQGFYSGLSELLQGGGNV [20E2B-3-E12-IGFR]
27 | 7.2 | 5.7 | 0.1 | 0.8 | IWATGDFYRLLSQLVMGRVGT [20E2B-2-B8-IGFR]
28 | 8.9 | 15.6 | 0.1 | 1.8 | QPAPDGFYSALMKLIGRGGVS [20E2B-3-C8-IGFR]
29 | 6.7 | 6.7 | 0.1 | 1 | RGIVAMVEATEVGSDHDPFYHKLSELVQGS [B6Hα-2-C7-IR]
